# Measurements as given in patent US20200131524.
# T1: 3XHA-LEC2 (Arabidopsis LEAFY COTYLEDON 2, CDS in PB7HA 35S vector), Q1PFR7
# T1 chain: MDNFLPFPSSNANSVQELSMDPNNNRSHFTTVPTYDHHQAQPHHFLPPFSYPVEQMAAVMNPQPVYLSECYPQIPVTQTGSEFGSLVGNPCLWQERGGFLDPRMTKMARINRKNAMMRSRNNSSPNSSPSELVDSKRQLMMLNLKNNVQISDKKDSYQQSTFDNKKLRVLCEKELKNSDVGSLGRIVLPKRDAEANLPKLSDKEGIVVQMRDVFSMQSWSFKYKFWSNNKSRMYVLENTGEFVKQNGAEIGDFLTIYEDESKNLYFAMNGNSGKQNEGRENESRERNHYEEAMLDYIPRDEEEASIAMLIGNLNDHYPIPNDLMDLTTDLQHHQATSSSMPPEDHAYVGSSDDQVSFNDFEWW
# Biological target: T1, 3XHA-LEC2 (Arabidopsis LEAFY COTYLEDON …)
protein,measurement,value
"3xFLAG-UPL3 (Arabidopsis UBIQUITIN PROTEIN LIGASE 3, CDS in PW1266 35S vector) (protein) METRSRKRAEATSAAPSSSSSSPPPPPSASGPTTRSKRARLSSSSSSSLAPTPPSSSTTTRSRSSRSAAAAAPMDTSTDSSGFRRGGRGNRGNNNDNSDKGKEKEHDVRIRERERERDRAREQLNMDAAAAAARSADEDDDNDSEDGNGGFMHPNMSSASSALQGLLRKLGAGLDDLLPSSGIGSASSSHLNGRMKKILSGLRAEGEEGKQVEALTQLCEMLSIGTEDSLSTFSVDSFVPVLVGLLNHESNPDIMLLAARALTHLCDVLPSSCAAVVHYGAVSCLVARLLTIEYMDLAEQSLQALKKISQEHPTACLRAGALMAVLSYLDFFSTGVQRVALSTAANMCKKLPSDASDYVMEAVPLLTNLLQYHDSKVLEYASICLTRIAEAFAPYPEKLDELCNHGLVTQAASLISTSNSGGGQASLSVSTYTGLIRLLSTCASGSPLGFRTLLLLGISSILKDILLGSGVSANASVSPALSRPADQIYEIVNLANELLPPLPEGVISLPTSTNALVKGSCQKKSSPSTSGKQEDILKISPREKLLGDQPELLQQFGLDLLPVLVQIYGSSVNGTIRHKCLSVIGKLMYFSSSEMIQSLIGDTNISSFLAGVLAWKDPQVLVPALQVAEILMEKLPETFSKVFVREGVVHAVDQLVLVGKPSHASPTDKDNDCVPGSARSRRYRRRSSNANSDGNQSEEPKNPASLTIGANHNSLDTPTASFMLRETVSSCAKAFKDKYFPSDGGDVDVGVTDDLLHLKNLCTKLTAGIDDHKVKGKGKSKASGPFLGDFSASKEEYLIGVISEILGEISKGDGVSTFEFIGSGVVAALLNYFSCGYFSKEKISELNLPKLRQEGLRRFKAFLEVALPFDGNEGKVPPMTVLIQKLQNALSSLERFPVVLSHPSRSLSGSARLSSGLSALAHPLKLRLCRASGEKTLRDYSSNIVLIDPLASLAAVEEFLWPRVQRSESALKPAAPIGNTEPGTLPSGAGVSSPSSSTPASTTRRHSSRSRSAINIGDTSKKDPVHEKGTSSSKGKGKGVMKPAQADKGPQTRSNAQKRAVLDKDTQMKPASGDSSSEDEELEISPVDIDDALVIEEDDISDDEDDDNEDVLDDSLPMCTPDKVHDVKLADSVDDDGLATSGRQMNPASGGTSGAAAARASDSIDTGIGNSYGSRGALSFAAAAMAGLGAASGRGIRGSRDLHGRTLNRSSDEPSKLIFTAAGKQLSRHLTIYQAVQRQLMLDEDDDDRFGGSDLVSSDGSRFNDIYTIMYQRPDSQVNRLSVGGASSTTPSKSTKSATTNSSVESQSHRASLLDSILQGELPCDLEKSNSTYNVLALLRVLEGLNQLCPRLRAQTLSDRFAEGKITSLDDLSTTAAKVPLDEFVNSKLTPKLARQIQDALALCSGSLPSWCYQLTRACPFLFPFQTRRQYFYSTAFGLSRALNRLQQQQGADGSGSTNEREMRIGRLQRQKVRVSRNRILDSAAKVMEMYSSQKAVLEVEYFGEVGTGLGPTLEFYTLLSHDLQKASLGMWRSSSGDKVSMQIGRDEIEDGKPSAANRDIVLAPLGLFPRPWPSTADISEGGQFHKVIEYFRLLGRVMAKALQDGRLLDVPLSTAFYKLILGQELDLHDIVLFDAELGKTLQELRVVVARKHYLEGVGGDNSSTISDLCLRGCRIEDLSLEFTLPGYPEYILRSGDEIVDITNLEEYISLVVDATVKRGVTRQIEAFRSGFNQVFDITSLQIFTPSELDYLLCGRRELWEVETLAEHIKFDHGYNAKSPAIINLLEIMGELTADQQRAFCQFVTGAPRLPPGGLAVLNPKLTIVRKHSSTSSAAANGAGASETADDDLPSVMTCANYLKLPPYSTKEIMYKKLLYAINEGQGSFDLS",ubiquitylation of LEC2 (HA immunoprecipitation and immunoblot after co-expression in Nicotiana benthamiana),"when co-expressed with 3xFLAG-UPL3, 3XHA-LEC2 ubiquitylation appears enhanced"
